Results reported in patent publication US20260250396A1 (TRUEBINDING, published 2026).

Molecular target: T1, human Galectin-3 (human, UniProt P17931 1-250, limits assumed)
T1 construct: also called Gal-3; Gal3
Assay: in vitro affinity; method and format not stated

T1 sequence (P17931 whole entry): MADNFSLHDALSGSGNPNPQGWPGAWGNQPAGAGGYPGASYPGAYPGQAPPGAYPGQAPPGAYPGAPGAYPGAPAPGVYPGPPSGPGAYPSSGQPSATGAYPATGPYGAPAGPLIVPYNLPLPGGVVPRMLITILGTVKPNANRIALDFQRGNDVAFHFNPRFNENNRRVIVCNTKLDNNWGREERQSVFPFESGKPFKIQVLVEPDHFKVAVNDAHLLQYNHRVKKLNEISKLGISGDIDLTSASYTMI

Kd: 8.4 nM
B1: TB006 (antibody, human IgG4 S228P, kappa, V domains shown)
VH: QVQLVQSGAEVKKPGASVKVSCKASGYSFTNYYMHWVRQAPGQRLEWMGWIYPGSGNTNYNEKFQGRVTITADTSASTAYMELSSLRSEDTAVYYCSTAPGGFDVWGQGTTVTVSS
VL: DIVMTQTPLSLSVTPGQPASISCKSSKSLLHSDGITYLYWYLQKPGQSPQLLIYRMSNLASGVPDRFSGSGSGTDFTLKISRVEAEDVGVYYCAQMLEFPLTFGQGTKLEIKR
notes: also called anti-Gal3 antibody; humanized IgG4 (S228P) type monoclonal antibody
